In publication PMC5481814, “Stapled Voltage-Gated Calcium Channel (CaV) α-Interaction Domain (AID) Peptides Act As Selective Protein–Protein Interaction Inhibitors of CaV Function” (ACS Chemical Neuroscience, 2017):
One block for each substance: values may come before it.

Columns and labels:
[1] = target: CaVβ2a core (unimolecular CaVβ2a construct) (rat); assay: ITC; 20 μM AID peptide titrated into 2 μM CaVβ2a core; 15 °C; 150 mM KCl, 10 mM potassium phosphate, pH 7.3; single site binding model
[2] = target: CaVβ2a core (Rattus norvegicus) (UniProt Q8VGC3); assay: ITC; settings: cited from earlier work
Chain of CaVβ2a core (Rattus norvegicus) (Q8VGC3 68-476): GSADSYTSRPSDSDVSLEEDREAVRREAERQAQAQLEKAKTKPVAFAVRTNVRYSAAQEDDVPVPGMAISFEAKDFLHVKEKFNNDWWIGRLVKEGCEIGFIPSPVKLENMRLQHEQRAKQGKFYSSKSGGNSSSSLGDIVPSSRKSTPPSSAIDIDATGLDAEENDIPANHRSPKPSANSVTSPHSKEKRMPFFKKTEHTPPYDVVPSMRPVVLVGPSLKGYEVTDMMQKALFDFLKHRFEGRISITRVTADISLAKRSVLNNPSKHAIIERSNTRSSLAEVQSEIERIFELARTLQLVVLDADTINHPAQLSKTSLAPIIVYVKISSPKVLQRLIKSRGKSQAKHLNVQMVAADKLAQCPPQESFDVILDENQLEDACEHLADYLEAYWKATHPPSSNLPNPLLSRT

[3] = target: Human CaV1.2 (α1C77) (human) (UniProt Q13936)
Chain of Human CaV1.2 (α1C77) (human) (Q13936 other isoform, or with tags, fused parts or gaps): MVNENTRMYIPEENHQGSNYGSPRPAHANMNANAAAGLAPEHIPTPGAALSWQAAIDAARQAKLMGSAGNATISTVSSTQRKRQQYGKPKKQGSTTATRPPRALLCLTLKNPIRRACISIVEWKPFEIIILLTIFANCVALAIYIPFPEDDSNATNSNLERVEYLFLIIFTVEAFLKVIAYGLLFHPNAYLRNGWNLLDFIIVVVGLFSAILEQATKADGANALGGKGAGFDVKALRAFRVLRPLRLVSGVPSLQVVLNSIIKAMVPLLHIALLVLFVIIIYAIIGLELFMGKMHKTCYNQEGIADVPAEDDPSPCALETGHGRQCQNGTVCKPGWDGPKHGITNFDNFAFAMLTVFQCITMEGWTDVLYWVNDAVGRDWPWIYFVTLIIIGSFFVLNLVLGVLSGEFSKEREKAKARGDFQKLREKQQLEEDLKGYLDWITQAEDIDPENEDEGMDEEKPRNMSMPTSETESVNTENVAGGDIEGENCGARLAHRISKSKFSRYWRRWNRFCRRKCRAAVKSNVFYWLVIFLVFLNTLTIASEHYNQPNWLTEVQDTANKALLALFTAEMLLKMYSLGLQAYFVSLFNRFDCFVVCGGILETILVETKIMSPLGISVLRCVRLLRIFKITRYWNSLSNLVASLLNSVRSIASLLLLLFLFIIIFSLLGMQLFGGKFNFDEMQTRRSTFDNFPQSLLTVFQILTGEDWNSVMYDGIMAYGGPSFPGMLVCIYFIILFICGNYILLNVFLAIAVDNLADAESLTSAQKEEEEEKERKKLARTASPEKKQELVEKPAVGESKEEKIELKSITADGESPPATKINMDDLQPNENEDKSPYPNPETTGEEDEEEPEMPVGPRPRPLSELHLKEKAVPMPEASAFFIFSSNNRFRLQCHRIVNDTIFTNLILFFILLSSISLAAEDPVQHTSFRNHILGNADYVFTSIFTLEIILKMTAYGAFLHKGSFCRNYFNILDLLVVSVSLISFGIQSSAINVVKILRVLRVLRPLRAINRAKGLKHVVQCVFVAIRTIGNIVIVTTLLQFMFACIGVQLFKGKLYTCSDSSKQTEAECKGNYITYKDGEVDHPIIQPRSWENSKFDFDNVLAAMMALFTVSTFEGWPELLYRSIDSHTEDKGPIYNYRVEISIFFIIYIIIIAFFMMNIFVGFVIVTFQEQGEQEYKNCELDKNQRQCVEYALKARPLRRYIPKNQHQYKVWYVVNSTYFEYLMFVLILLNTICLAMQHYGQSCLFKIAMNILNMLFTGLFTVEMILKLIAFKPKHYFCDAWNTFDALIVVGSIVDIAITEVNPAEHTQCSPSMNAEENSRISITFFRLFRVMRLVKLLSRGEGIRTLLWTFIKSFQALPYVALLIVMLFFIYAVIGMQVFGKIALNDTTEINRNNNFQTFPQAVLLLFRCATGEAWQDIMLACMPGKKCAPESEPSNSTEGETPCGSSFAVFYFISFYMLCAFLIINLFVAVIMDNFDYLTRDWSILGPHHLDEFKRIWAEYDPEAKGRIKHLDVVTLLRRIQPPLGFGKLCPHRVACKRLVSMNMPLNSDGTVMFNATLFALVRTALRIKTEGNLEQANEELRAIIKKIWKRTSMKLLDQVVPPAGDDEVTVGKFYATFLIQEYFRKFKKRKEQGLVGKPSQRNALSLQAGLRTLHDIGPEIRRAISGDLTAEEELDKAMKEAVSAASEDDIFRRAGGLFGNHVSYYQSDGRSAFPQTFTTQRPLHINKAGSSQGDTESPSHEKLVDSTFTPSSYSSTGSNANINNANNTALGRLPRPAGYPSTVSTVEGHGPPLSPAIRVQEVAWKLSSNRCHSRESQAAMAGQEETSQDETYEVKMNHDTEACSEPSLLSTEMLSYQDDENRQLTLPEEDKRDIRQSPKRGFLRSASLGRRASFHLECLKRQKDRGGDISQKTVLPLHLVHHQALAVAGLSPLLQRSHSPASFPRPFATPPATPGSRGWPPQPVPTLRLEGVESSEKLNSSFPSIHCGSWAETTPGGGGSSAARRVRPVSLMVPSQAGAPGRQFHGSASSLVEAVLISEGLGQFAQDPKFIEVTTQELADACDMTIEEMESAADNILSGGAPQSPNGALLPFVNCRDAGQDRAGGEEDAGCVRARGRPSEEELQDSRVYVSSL

[4] = target: Human CaV1.2-Y437A (human)

Chain of CaVβ3 (expressed in oocytes) (P54286 whole entry): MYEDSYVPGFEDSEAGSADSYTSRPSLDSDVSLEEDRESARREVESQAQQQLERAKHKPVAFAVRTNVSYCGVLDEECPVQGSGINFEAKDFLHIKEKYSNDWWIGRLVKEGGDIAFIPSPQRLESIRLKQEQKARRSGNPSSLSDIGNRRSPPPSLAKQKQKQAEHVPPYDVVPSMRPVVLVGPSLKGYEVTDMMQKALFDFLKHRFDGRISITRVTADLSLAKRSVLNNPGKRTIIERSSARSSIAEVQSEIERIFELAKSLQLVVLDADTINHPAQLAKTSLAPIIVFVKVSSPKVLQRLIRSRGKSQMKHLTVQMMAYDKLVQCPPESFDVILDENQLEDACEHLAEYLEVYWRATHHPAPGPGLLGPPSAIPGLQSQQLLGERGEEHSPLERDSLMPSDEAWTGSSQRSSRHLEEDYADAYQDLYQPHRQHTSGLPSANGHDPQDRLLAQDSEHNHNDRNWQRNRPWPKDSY
Chain of CaV1.2 AID peptide AID (Q13936 425-448): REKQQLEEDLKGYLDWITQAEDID

Kd [1]: 6.6 nM
dH [1]: -15.6 kcal mol^–1
stoichiometry N [1]: 0.94
Substance: CaV1.2 AID peptide (α-interaction domain, unmodified)

Substance: CaV1.2 AID peptide AID (from UniProt Q13936)
Kd [2]: 5.3 nM

Substance: CaVβ3 (expressed in oocytes) (from UniProt P54286 1-477) (natural protein)
time constant τ for the loss of CaV1.2:CaVβ3 channels (rundown of Imax, single exponential fit) after injection of 2.8 mM AID peptide [3]: 4.6 min
time constant τ for the loss of CaV1.2:CaVβ3 channels (rundown of Imax, single exponential fit) after injection of 2.8 mM AID-CAP peptide [3]: 5.3 min

Substance: Rat CaVβ2a (expressed in oocytes) (natural protein)
time constant τ of the rundown of Imax of CaV1.2-Y437A:CaVβ2a currents after injection of 400 μM AID peptide (single exponential fit) [4]: 5.3 min
time constant τ of the rundown of Imax of CaV1.2-Y437A:CaVβ2a currents after injection of 400 μM AID-CAP peptide (single exponential fit) [4]: 4.1 min
